Like-named read-outs stand apart in the source and are kept apart here. Non-standard residues stand in square brackets, D forms with d. Primed or numbered codes have the meaning given here. No end group written: not given here. APC = aminopyrrolidine carboxylic acid (2-aminopyrrolidine-4-carboxylic acid); ACPC″ = 2-aminocyclopentane carboxylic acid (X); β3hW = N[C@H](CC(=O)O)Cc1c[nH]c2ccccc12; β3hE = N[C@@H](CCC(=O)O)CC(=O)O; β3hF = N[C@H](CC(=O)O)Cc1ccccc1; β3hK = NCCCC[C@H](N)CC(=O)O; β3hM = CSCC[C@H](N)CC(=O)O; β3hD = NC(CC(=O)O)CC(=O)O; β3hS = N[C@@H](CO)CC(=O)O
T1: human parathyroid hormone receptor 1, wild-type (hPTHR-1) (human, UniProt Q03431 27-593)
T1 construct: whole, on cells; also called human PTHR-1; PTHR-1-WT
T1 sequence (looked up): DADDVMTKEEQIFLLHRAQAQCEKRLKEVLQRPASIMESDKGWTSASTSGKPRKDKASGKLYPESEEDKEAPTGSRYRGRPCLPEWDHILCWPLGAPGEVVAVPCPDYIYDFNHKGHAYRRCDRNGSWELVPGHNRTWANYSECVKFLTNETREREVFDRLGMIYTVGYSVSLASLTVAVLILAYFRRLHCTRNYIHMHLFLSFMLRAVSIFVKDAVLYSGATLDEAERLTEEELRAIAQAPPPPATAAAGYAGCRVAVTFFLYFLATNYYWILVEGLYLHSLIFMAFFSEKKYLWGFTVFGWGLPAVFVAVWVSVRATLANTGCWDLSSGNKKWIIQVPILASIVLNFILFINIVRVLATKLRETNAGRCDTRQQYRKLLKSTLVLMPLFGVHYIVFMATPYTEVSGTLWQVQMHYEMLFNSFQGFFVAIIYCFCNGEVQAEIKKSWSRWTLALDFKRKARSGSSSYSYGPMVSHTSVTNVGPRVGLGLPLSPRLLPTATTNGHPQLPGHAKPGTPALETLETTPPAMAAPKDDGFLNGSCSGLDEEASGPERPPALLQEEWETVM

T2: PTHR-1 (species and cells not stated for the assay) (Homo sapiens (Human), UniProt Q03431 27-593)
T2 sequence: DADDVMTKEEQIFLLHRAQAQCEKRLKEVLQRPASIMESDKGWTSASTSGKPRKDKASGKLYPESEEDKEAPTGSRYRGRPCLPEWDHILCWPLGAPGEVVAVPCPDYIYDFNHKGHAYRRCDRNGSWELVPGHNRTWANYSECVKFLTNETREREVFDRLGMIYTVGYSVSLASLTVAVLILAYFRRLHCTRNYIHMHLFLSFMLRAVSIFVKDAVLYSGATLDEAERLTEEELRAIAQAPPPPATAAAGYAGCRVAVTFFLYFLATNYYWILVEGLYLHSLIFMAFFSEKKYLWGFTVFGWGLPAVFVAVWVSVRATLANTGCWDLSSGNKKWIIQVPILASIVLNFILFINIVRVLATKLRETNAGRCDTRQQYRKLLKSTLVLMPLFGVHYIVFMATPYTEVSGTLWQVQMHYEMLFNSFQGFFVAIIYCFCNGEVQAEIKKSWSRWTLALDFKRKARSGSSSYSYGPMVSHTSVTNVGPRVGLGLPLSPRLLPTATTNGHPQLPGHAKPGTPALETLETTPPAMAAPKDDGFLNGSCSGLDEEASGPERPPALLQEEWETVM

T3: rat parathyroid hormone receptor 1, wild-type (rPTHR-1) (rat, UniProt P25961 27-591)
T3 construct: whole, on cells; also called rat PTHR-1; rPTHR-1-WT
T3 sequence (looked up): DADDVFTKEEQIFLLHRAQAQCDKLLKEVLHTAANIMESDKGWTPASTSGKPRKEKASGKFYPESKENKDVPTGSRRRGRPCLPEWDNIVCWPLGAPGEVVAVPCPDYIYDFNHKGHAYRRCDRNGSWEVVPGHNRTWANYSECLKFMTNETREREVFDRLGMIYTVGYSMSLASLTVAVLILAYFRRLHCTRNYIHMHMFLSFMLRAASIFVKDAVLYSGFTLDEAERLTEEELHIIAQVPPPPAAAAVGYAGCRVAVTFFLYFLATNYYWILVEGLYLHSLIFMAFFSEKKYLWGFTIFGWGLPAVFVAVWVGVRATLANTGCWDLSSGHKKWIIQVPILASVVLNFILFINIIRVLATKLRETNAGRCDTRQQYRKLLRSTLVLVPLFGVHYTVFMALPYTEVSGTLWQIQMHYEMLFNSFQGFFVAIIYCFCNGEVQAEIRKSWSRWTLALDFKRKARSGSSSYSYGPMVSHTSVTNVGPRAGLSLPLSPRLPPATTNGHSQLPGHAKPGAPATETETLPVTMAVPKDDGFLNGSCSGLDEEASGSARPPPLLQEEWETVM


Columns and labels:
[1] = molecular target: T1, human parathyroid hormone receptor 1, …; experiment: R0 binding, GP2.3 membranes (human PTHR-1); tracer not stated here
[2] = molecular target: T2, PTHR-1 (species and cells not stated …); experiment: cell-based or functional assay
[3] = molecular target: T3, rat parathyroid hormone receptor 1, …; experiment: RG state; 125I-M-PTH(1-15) displacement; COS-7 membranes, rPTHR-1 + Gαs mutant
Excerpt: (§1) Binding inhibition constants are expressed as the -log (IC50) and corresponding nanoMolar (nM) values. Values are means (±SEM) of the number of experiments shown (n), each performed in duplicate.

[4] = molecular target: T1, human parathyroid hormone receptor 1, …; experiment: R0 state; 125I-PTH(1-34) displacement; COS-7 membranes, hPTHR-1, GTPγS
Excerpt: (§2) ^aValues are means of n ≧4 experiments, each performed in duplicate.

[5] = molecular target: T1, human parathyroid hormone receptor 1, …; experiment: RG state; 125I-M-PTH(1-15) displacement; COS-7 membranes, hPTHR-1 + Gαs mutant
Excerpt: (§3) FIGS. 6A, 6B, 6C, 6D, 6E, and 6F constitute a series of graphs depicting binding of various analogs to the R⁰ and RG forms of human PTHR-1 (hPTHR-1). […] Data are means (±SEM) of n≧4 experiments, each performed in duplicate.

[6] = molecular target: T3, rat parathyroid hormone receptor 1, …; experiment: cell-based or functional assay; parameters: AUC-on / AUC-washout: unit not given beside the values
[7] = molecular target: T1, human parathyroid hormone receptor 1, …; experiment: RG state; 125I-M-PTH(1-15) displacement; COS-7 membranes, hPTHR-1 + Gαs mutant; remark: listed apart in the source
Excerpt: as §2

[8] = molecular target: T3, rat parathyroid hormone receptor 1, …; experiment: cell-based or functional assay
[9] = molecular target: T1, human parathyroid hormone receptor 1, …; experiment: R0 state; 125I-PTH(1-34) displacement; COS-7 membranes, hPTHR-1, GTPγS; remark: listed apart in the source
Excerpt: as §3

[10] = molecular target: T3, rat parathyroid hormone receptor 1, …; experiment: R0 state; 125I-PTH(1-34) displacement; COS-7 membranes, rPTHR-1, GTPγS
Excerpt: as §1

[11] = molecular target: T3, rat parathyroid hormone receptor 1, …; experiment: as above; remark: listed apart in the source
Excerpt: as §1

[12] = molecular target: T3, rat parathyroid hormone receptor 1, …; experiment: cell-based or functional assay; remark: listed apart in the source
[13] = molecular target: T1, human parathyroid hormone receptor 1, …; experiment: cell-based or functional assay
[14] = molecular target: T1, human parathyroid hormone receptor 1, …; experiment: cell-based or functional assay; remark: listed apart in the source
[15] = molecular target: T3, rat parathyroid hormone receptor 1, …; experiment: RG state; 125I-M-PTH(1-15) displacement; COS-7 membranes, rPTHR-1 + Gαs mutant; remark: listed apart in the source
Excerpt: as §1

[16] = molecular target: T1, human parathyroid hormone receptor 1, …; experiment: ratio of R0 IC50 to RG IC50, hPTHR-1
[17] = molecular target: T3, rat parathyroid hormone receptor 1, …; experiment: ratio of R0 IC50 to RG IC50, rPTHR-1
Excerpt: as §1

[18] = molecular target: T2, PTHR-1 (species and cells not stated …); experiment: cell-based or functional assay; remark: listed apart in the source
[19] = molecular target: T2, PTHR-1 (species and cells not stated …); experiment: cell-based or functional assay; remark: listed apart in the source

| Binder | -log (IC50) [3] | IC50 [3] [nM] | IC50 [4] [nM] | -log (IC50) [5] | IC50 [5] [nM] | AUC-on [6] | AUC-washout [6] | IC50 [7] [nM] | cAMP EC50 [8] [nM] | cAMP Max [8] [cps × 10-3] | cAMP pEC50 [8] | -log (IC50) [9] | IC50 [9] [nM] | -log (IC50) [11] | IC50 [11] [nM] | cAMP EC50 [13] [nM] | cAMP Max [13] | cAMP EC50 [14] [nM] | cAMP Max [14] [cps × 10^-3] | cAMP pEC50 [14] | also measured |
| --- | --- | --- | --- | --- | --- | --- | --- | --- | --- | --- | --- | --- | --- | --- | --- | --- | --- | --- | --- | --- | --- |
| [β3hS]VSE[ACPC″]Q[ACPC″]MHNLGK[ACPC″]LNS[ACPC″]ERV[APC]WLR[APC]KLQ[ACPC″]VHN[ACPC″]-NH2 [FcycD6_β3Ser(1), ACPC(5,7)] |  |  |  |  |  |  |  |  |  |  |  |  |  |  |  |  |  |  |  |  | IC50 [1]: 89.4 nM; cAMP EC50 [2]: 0.79 nM |
| SVSEIQLMHNLGKHLNSMERVEWLRKKLQDVQNF-NH2 (not fully specified (residues 20, 24, 28, 32); printed as SVSEIQLMHNLGKHLNSMERVEWLRKKLQDVQNF-NH2; also: five β3 residues, positions not given here in text, also called α/β-peptide B5) [B5] | 8.37 | 4.2 | 19 | 10.1 | 0.086 | 130000 | 84000 | 0.086 | 1.45 | 51 | 8.84 | 7.72 | 19 | 7.18 | 65 | 0.11 | 0.98 relative to PTH(1-34) | 0.11 | 212 | 9.97 | IC50 [10]: 65 nM; cAMP EC50 [12]: 1.45 nM; cAMP Max [12]: 0.78 relative to PTH(1-34); IC50 [15]: 4.2 nM |

The next lines start with results.

| -log (IC50) [3] | IC50 [3] [nM] | IC50 [4] [nM] | -log (IC50) [5] | IC50 [5] [nM] | AUC-on [6] | AUC-washout [6] | IC50 [7] [nM] | cAMP EC50 [8] [nM] | cAMP Max [8] [cps × 10-3] | cAMP pEC50 [8] | -log (IC50) [9] | IC50 [9] [nM] | -log (IC50) [11] | IC50 [11] [nM] | cAMP EC50 [13] [nM] | cAMP Max [13] | cAMP EC50 [14] [nM] | cAMP Max [14] [cps × 10^-3] | cAMP pEC50 [14] | Binder | also measured |
| --- | --- | --- | --- | --- | --- | --- | --- | --- | --- | --- | --- | --- | --- | --- | --- | --- | --- | --- | --- | --- | --- |
| 8.69 | 2 | 3.5 | 9.63 | 0.24 |  |  | 0.24 | 1.62 | 40 | 8.79 | 8.45 | 3.5 | 7.83 | 14.8 | 0.39 | 0.85 relative to PTH(1-34) | 0.39 | 184 | 9.41 | SVSEIQLMHNLGKWLNSMERVEWLRKKLQDVHNF-NH2 (not fully specified (residue 14); printed as SVSEIQLMHNLGKWLNSMERVEWLRKKLQDVHNF-NH2; also: seven β3 residues, positions not given here in text, also called α/β-peptide D7) [D7] | R^0/RG [16]: 15 ratio; Fold PTH(1-34) [8]: 3.89 fold; R^0/RG [17]: 7 ratio; Fold PTH(1-34) [14]: 2.26 fold |
| 9.09 | 0.81 | 2 | 10.2 | 0.065 | 100000 | 130000 | 0.065 | 0.33 | 50 | 9.48 | 8.69 | 2 | 8.22 | 6.1 | 0.13 | 0.87 relative to PTH(1-34) | 0.13 | 189 | 9.89 | SVSEIQLMHNLGK[β3hW]LNS[β3hM]ERV[β3hE]WLR[β3hK]KLQ[β3hD]VHN[β3hF]-NH2 (also called α/β-peptide D6) [D6] | R^0/RG [16]: 31 ratio; Fold PTH [18]: 2.1 fold; cAMP EC50 [18]: 0.17 nM; AUC Ratio [6]: 1.5; Fold PTH(1-34) [8]: 0.79 fold; IC50 [10]: 6.1 nM; cAMP response PTH1R/PTH2R [19]: 33 ratio; R^0/RG [17]: 8 ratio; cAMP EC50 [12]: 0.33 nM; cAMP Max [12]: 0.76 relative to PTH(1-34); Fold PTH(1-34) [14]: 0.76 fold; IC50 [15]: 0.81 nM |

From US20140378382A1 (WISCONSIN ALUMNI RESEARCH FOUNDATION, published 2014)
